Measured values as given in US11857697B2, “Compositions and methods for obtaining 3-dimensional lung-like epithelium and related uses thereof” (THE REGENTS OF THE UNIVERSITY OF MICHIGAN, priority 2017, dated 2024).
Entries after “also recorded” stand apart in the source; their conditions may differ.

Experiments:
[1] = test system: e13.5 CD1 mouse epithelial lung buds; assay: EdU incorporation quantified by flow cytometry in cultured mouse lung buds; assay type: cell-based; details: 50-100 ng/mL FGF7 versus 1-10 ng/mL, one week culture, 1 hour EdU pulse
Experimental: Epithelial lung buds were dissected from e13.5 CD1 mice and plated in a matrigel droplet as described above. 3-4 individual buds from one mouse were placed in each droplet and were pooled to serve as a single biological replicate. Three droplets (corresponding to 3 independent biological samples) were assigned to each experimental group, receiving either 1, 10, 50 or 100 ng/mL of FGF7 for 7 days. Media was changed every 2-3 days. Cells were incubated with EdU for 1 hour and stained with the Click-It EdU Alexa Fluor 488 system (ThermoFisher Cat# C10337) according to the manufacturer's instructions. As a control, wells that received 10 ng/mL of FGF7 for 7 days were taken through the EdU steps but were not stained were used to set the gates. For analysis, lung buds were broken into a single cell suspension. 1 mL of accutase (Sigma Cat# A6964) was added to a 15 mL conical tube containing pooled epithelial buds and cells were incubated at 37 degrees Celsius with frequent visual inspection until clumps of cells were no longer visible. 3 mL of basal media (see below) was added to each tube, and cells were centrifuged at 300 g for 5 minutes at 4 degrees Celsius. The supernatant was then withdrawn, and cells were resuspended with 1 mL sterile PBS, filtered through a 70 uM strainer to remove any cell clumps and transferred to a cell sorting tube. […]

[2] = test system: E13.5 mouse distal epithelial lung buds; assay: Isolated E13.5 mouse distal lung bud culture in Matrigel droplet: growth/expansion; assay type: cell-based
Experimental: Isolated mouse buds were cultured in 4-6 μl droplets of matrigel, covered with media, and kept at 37 degrees Celsius with 5% Carbon Dioxide. Isolated human fetal lung buds were cultured in 25-50 μl droplets of matrigel, covered with media, and kept at 37 degrees Celsius with 5% Carbon Dioxide.
Mouse buds were dissected from E13.5 embryos. For experiments using Sox9CreER; Rosa^Tomato/Tomato mice, 50 ug/g of tamoxifen was dissolved in corn oil and given by oral gavage on E12.5, 24 hours prior to dissection. Briefly, in sterile environment, whole lungs were placed in 100% dispase (Corning Cat#354235) on ice for 30 minutes. Lungs were then transferred using a 25 uL wiretrol tool (Drummond Scientific Cat#S5-000-2050) to 100% FBS (Corning Cat#35-010-CV) on ice for 15 minutes, and then transferred to a solution of Dulbecco's Modified Eagle Medium: Nutrient Mixture F12 (DMEM/F12, ThermoFisher SKU#12634-010) with 10% FBS and 1× Pennicillin-Streptomycin (ThermoFisher Cat#15140122) on ice. To dissect buds, a single lung or lung lobe was transferred by wiretrol within a droplet of media to a 100 mm sterile petri dish. Under a dissecting microscope, the mesenchyme was carefully removed and epithelial bud tips were torn away from the bronchial tree using tungsten needles (Point Technologies, Inc.). Care was taken to remove the trachea and any connective tissue from dissected lungs. Isolated bud tips were picked up using a p20 pipette and added to an eppendorf tube with cold Matrigel (Corning Ref#354248) on ice. The buds were picked up in a p20 pipette with 4-6 uL of Matrigel and plated on a 24-well tissue culture well (ThermoFisher Cat#142475). The plate was moved to a tissue culture incubator and incubated for 5 minutes at 37 degrees Celsius and 5% CO2 to allow the Matrigel droplet to solidify. 500 uL of media was then added to the dish in a laminar flow hood. Media was changed every 2-3 days.
All mouse bud, human fetal bud, and hPSC-derived human lung organoids were grown in low-serum basal media (basal media) with added growth factors. Basal media consisted of Dulbecco's Modified Eagle Medium: Nutrient Mixture F12 (DMEM/F12, ThermoFisher SKU#12634-010) supplemented with 1× N2 supplement (ThermoFisher Catalog#17502048) and […] B27 supplement (ThermoFisher Catalog#17504044), along with 2 mM Glutamax (ThermoFisher Catalog#35050061), 1× Pennicillin-Streptomycin (ThermoFisher Cat#15140122) and 0.05% Bovine Serum Albumin (BSA; Sigma product# A9647). BSA was weighed and dissolved in DMEM F/12 media before being passed through a SteriFlip 0.22 uM filter (Millipore Item# EW-29969-24) and being added to basal media. Media was stored at 4 degrees Celsius for up to 1 month. On the day of use, basal media was aliquoted and 50 ug/mL Ascorbic acid and 0.4 uM Monothioglycerol was added. […]

B1: Recombinant Human Fibroblast Growth Factor 7 (protein, UniProt P21781 32-194, looked up)
Fibroblast growth factor 7: CNDMTPEQMATNVNCSSPERHTRSYDYMEGGDIRVRRLFCRTQWYLRIDKRGKVKGTQEMKNNYNIMEIRTVAVGIVAIKGVESEFYLAMNKEGKLYAKKECNEDCNFKELILENHYNTYASAKWTHNGGEMFVALNQKGIPVRGKKTKKEQKTAHFLPMAIT
notes: Recombinant human growth factor from R&D systems, used at 10 ng/mL unless otherwise noted
Proliferation (EdU labeled cells) [1]: increased proliferation significantly; also recorded: significant increase in labeled cells | Bud growth ([2]; FGF7 1 ng/mL, 3 and 5 days in vitro): very modest growth | Bud growth ([2]; FGF7, all other conditions above 1 ng/mL, 5 days in vitro): robust growth | Growth, expansion and survival of isolated buds ([2]; individual growth factor in basal media, FGF7 10 ng/mL, up to two weeks): promoted growth, expansion a survival of isolated buds for up to two weeks
